This experiment deals with T1, MLO-Y4 cell surface proteins (Mus musculus, UniProt P59242).
T1 construct: endogenous in cells; host or cells: MLO-Y4
T1 sequence (P59242 1-1191): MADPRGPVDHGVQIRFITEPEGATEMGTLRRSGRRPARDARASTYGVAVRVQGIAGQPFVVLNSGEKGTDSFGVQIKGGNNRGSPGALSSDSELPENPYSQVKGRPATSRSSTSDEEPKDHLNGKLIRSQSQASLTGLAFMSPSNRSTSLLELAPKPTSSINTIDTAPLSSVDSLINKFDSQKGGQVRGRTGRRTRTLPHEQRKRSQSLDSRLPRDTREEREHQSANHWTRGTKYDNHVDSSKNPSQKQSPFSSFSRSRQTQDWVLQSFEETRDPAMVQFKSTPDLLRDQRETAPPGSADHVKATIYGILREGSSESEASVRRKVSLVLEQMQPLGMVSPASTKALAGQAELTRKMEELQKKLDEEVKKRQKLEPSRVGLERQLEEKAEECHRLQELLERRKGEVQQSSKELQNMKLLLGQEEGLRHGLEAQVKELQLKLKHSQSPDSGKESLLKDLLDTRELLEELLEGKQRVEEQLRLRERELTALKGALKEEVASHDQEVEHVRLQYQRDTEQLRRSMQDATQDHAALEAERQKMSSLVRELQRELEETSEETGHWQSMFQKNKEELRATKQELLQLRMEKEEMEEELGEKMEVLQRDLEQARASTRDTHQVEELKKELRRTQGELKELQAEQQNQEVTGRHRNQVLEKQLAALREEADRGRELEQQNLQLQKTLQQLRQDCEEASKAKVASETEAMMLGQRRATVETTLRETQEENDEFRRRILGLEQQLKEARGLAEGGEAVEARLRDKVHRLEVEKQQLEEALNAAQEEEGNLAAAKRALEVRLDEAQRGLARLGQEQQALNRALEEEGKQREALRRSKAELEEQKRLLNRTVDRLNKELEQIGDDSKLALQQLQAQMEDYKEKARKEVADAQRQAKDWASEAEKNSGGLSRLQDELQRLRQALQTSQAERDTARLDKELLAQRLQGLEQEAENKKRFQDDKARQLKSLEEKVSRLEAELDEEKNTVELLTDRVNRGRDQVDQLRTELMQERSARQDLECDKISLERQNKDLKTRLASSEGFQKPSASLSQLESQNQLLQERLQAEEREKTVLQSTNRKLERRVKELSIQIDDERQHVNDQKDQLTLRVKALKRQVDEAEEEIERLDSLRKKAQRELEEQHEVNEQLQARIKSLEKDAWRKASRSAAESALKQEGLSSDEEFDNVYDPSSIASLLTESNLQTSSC
As to the kind of experiment: Crosslinking/co-immunoprecipitation/mass spectrometry (TMT quantitative proteomics) to identify irisin receptors. In kind it is binding. To be noted: co-precipitated protein Cgn (CING_MOUSE). An outline of the steps: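 Mouse MLO-Y4 cells were switched to serum-free FreeStyle medium for 4 h, chilled, then exposed to 10 nM His-tagged irisin (or adipsin as control) for 20 min. Cells were crosslinked with 1.5 mM DTSSP (30 min, ice), and bound proteins were pulled down on Ni-NTA and eluted with 250 mM imidazole. Eluates were separated by SDS-PAGE, trypsin-digested in gel, TMT 6-plex labelled and quantified by MS3-based LC-MS/MS on an Orbitrap Fusion Lumos.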

B1: irisin: secreted cleaved form of FNDC5; recombinant human/mouse irisin with C-terminal his tag produced in HEK293 cells (protein)
chain: DSPSAPVNVTVRHLKANSAVVSWDVLEDEVVIGFAISQQKKDVRMLRFIQEVNTTTRSCALWDLEEDTEYIVHVQAISIQGQSPASEPVLFKTPREAEKMASKNKDEVTMKE
modifications: left off: small tags and cut ends
notes: secreted cleaved form of FNDC5; recombinant human/mouse irisin with C-terminal his tag produced in HEK293 cells
As for B1, the TMT signal-to-noise ratio is reported as 16.0255 and the “irisin/adipsin TMT signal-to-noise ratio” value turned out to be 0.080.

(Values after patent publication US20210063414A1, “METHODS FOR PREVENTING AND/OR TREATING BONE LOSS CONDITIONS BY MODULATING IRISIN” (Dana-Farber Cancer Institute, Inc., priority 2018, published 2021).)
